# B1: HDV Ribozyme (parent)
# chain: GGCCGGCAUGGUCCCAGCCUCCUCGCUGGCGCCGGCUGGGCAACAUUCCGAGGGGACCGUCCCCUCGGUAAUGGCGAAUGGGACCCA
# Variants of: B1
# Experiment: self-cleavage, relative activity (ratio to wild type); higher = more cleavage; co-transcriptional
row,Variant,self-cleavage
1,GGCCGGCAUGGUCCCAGCCUCCUCGCUGGCGCCGGCUGGGCAACGUUCCGAGGGGACCGUCCCCUCGGUAAUGGCGAAUGGGUCCCA [A45G A83U],0.485
2,GGCCGGCAUGGUCCCAGCCUCCUCGCUGGCGCCGGCUGGGCAACCUUCCGAGGGGACCGUCCCCUCGGUAAUGUCGAAUGGGACCCA [A45C G74U],0.369
3,GGCCGGCAUGGUCCCAGCCUCCUCGCUGGCGCCGGCUGGGCAACCCUCCGAGGGGACCGUCCCCUCGGUAAUGGCGAAUGGGACCCA [A45C U46C],0.403
4,GGCCGGCAUGGUCCCAGCCUCCUCGCUGGCGCCGGCUGGGCAACCGUCCGAGGGGACCGUCCCCUCGGUAAUGGCGAAUGGGACCCA [A45C U46G],0.554
5,GGCCGGCAUGGUCCCAGCCUCCUCGCUGGCGCCGGCUGGGCAACCUUCCGAGGGGACCGGCCCCUCGGUAAUGGCGAAUGGGACCCA [A45C U60G],0.63
6,GGCCGGCAUGGUCCCAGCCUCCUCGCUGGCGCCGGCUGGGCAACCUUCCGAGGGGACCGACCCCUCGGUAAUGGCGAAUGGGACCCA [A45C U60A],0.883
7,GGCCGGCAUGGUCCCAGCCUCCUCGCUGGCGCCGGCUGGGCAACCUUCCGAGGGGACCGCCCCCUCGGUAAUGGCGAAUGGGACCCA [A45C U60C],0.573
8,GGCCGGCAUGGUCCCAGCCUCCUCGCUGGCGCCGGCUGGGCAACGUUCCGAGGGGACCGUCCCCUCGGUAAUGGCGAAUGGGACCCG [A45G A87G],0.868
9,GGCCGGCAUGGUCCCAGCCUCCUCGCUGGCGCCGGCUGGGCAACGUUCCGAGGGGACCGUCCCCUCGGUAAUGGCGAAUGGGACCCC [A45G A87C],1.11
10,GGCCGGCAUGGUCCCAGCCUCCUCGCUGGCGCCGGCUGGGCAACCUUCCGAGGGGACCGUCCCCUCGGUAAUGGCGAAUGUGACCCA [A45C G81U],0.262
11,GGCCGGCAUGGUCCCAGCCUCCUCGCUGGCGCCGGCUGGGCAACCUUCCGAGGGGACCGUCCCCUCGGUAAUGGCGAAUGAGACCCA [A45C G81A],0.0959
12,GGCCGGCAUGGUCCCAGCCUCCUCGCUGGCGCCGGCUGGGCAACGUUCCGAGGGGACCGUUCCCUCGGUAAUGGCGAAUGGGACCCA [A45G C61U],0.888
13,GGCCGGCAUGGUCCCAGCCUCCUCGCUGGCGCCGGCUGGGCAACGUUCCGAGGGGACCGUACCCUCGGUAAUGGCGAAUGGGACCCA [A45G C61A],1.15
14,GGCCGGCAUGGUCCCAGCCUCCUCGCUGGCGCCGGCUGGGCAACGUUCCGAGGGGACCGUGCCCUCGGUAAUGGCGAAUGGGACCCA [A45G C61G],0.467
15,GGCCGGCAUGGUCCCAGCCUCCUCGCUGGCGCCGGCUGGGCAACCUUCCGAGGGGACCGUCCCCUCGGUAAUGGCGAAUGGUACCCA [A45C G82U],0.397
16,GGCCGGCAUGGUCCCAGCCUCCUCGCUGGCGCCGGCUGGGCAACCUUCCGAGGGGACCGUCCCCUCGGUAAUGGCGAAUGGCACCCA [A45C G82C],0.256
17,GGCCGGCAUGGUCCCAGCCUCCUCGCUGGCGCCGGCUGGGCAACCUUCCGACGGGACCGUCCCCUCGGUAAUGGCGAAUGGGACCCA [A45C G52C],0.752
18,GGCCGGCAUGGUCCCAGCCUCCUCGCUGGCGCCGGCUGGGCAACCUUCCGAAGGGACCGUCCCCUCGGUAAUGGCGAAUGGGACCCA [A45C G52A],0.684
19,GGCCGGCAUGGUCCCAGCCUCCUCGCUGGCGCCGGCUGGGCAACCUUCCGAUGGGACCGUCCCCUCGGUAAUGGCGAAUGGGACCCA [A45C G52U],0.697
20,GGCCGGCAUGGUCCCAGCCUCCUCGCUGGCGCCGGCUGGGCAACCUUCCUAGGGGACCGUCCCCUCGGUAAUGGCGAAUGGGACCCA [A45C G50U],0.494
21,GGCCGGCAUGGUCCCAGCCUCCUCGCUGGCGCCGGCUGGGCAACCUUCCAAGGGGACCGUCCCCUCGGUAAUGGCGAAUGGGACCCA [A45C G50A],0.785
22,GGCCGGCAUGGUCCCAGCCUCCUCGCUGGCGCCGGCUGGGCAACGUUGCGAGGGGACCGUCCCCUCGGUAAUGGCGAAUGGGACCCA [A45G C48G],1.23

row,Variant,self-cleavage
1,GGCCGGCAUGGUCCCAGCCUCCUCGCUGGCGCCGGCUGGGCAACGUUUCGAGGGGACCGUCCCCUCGGUAAUGGCGAAUGGGACCCA [A45G C48U],0.978
2,GGCCGGCAUGGUCCCAGCCUCCUCGCUGGCGCCGGCUGGGCAACGUUCCGAGGGGACCGUCCCCUCGGUAAUGGCGAAUGGGACCCA [A45G],0.918
3,GGCCGGCAUGGUCCCAGCCUCCUCGCUGGCGCCGGCUGGGCAACGUUCCGAGGGGACCGUCCCCUCGGUAUUGGCGAAUGGGACCCA [A45G A71U],0.997
4,GGCCGGCAUGGUCCCAGCCUCCUCGCUGGCGCCGGCUGGGCAACCUUCCGAGGGGACCGUCCCCUCGGUAAUGGCGAAUGGGAUCCA [A45C C84U],0.499
5,GGCCGGCAUGGUCCCAGCCUCCUCGCUGGCGCCGGCUGGGCAACCUUCCGAGGGGACCGUCCCCACGGUAAUGGCGAAUGGGACCCA [A45C U65A],0.87
6,GGCCGGCAUGGUCCCAGCCUCCUCGCUGGCGCCGGCUGGGCAACCUUCCGAGGGGACCGUCCCCCCGGUAAUGGCGAAUGGGACCCA [A45C U65C],0.646
7,GGCCGGCAUGGUCCCAGCCUCCUCGCUGGCGCCGGCUGGGCAACCUUCCGAGGCGACCGUCCCCUCGGUAAUGGCGAAUGGGACCCA [A45C G54C],0.653
8,GGCCGGCAUGGUCCCAGCCUCCUCGCUGGCGCCGGCUGGGCAACCUUCCGAGGUGACCGUCCCCUCGGUAAUGGCGAAUGGGACCCA [A45C G54U],0.95
9,GGCCGGCAUGGUCCCAGCCUCCUCGCUGGCGCCGGCUGGGCAACCUUCCGAGGGGACCGUCCCCUCGGUAACGGCGAAUGGGACCCA [A45C U72C],0.481
10,GGCCGGCAUGGUCCCAGCCUCCUCGCUGGCGCCGGCUGGGCAACCUUCCGAGGGGACCGUCCCCUCGGUAAUCGCGAAUGGGACCCA [A45C G73C],0.424
11,GGCCGGCAUGGUCCCAGCCUCCUCGCUGGCGCCGGCUGGGCAACCUUCCGAGGGGACCGUCCCCUCUGUAAUGGCGAAUGGGACCCA [A45C G67U],0.604
12,GGCCGGCAUGGUCCCAGCCUCCUCGCUGGCGCCGGCUGGGCAACCUUCCGAGAGGACCGUCCCCUCGGUAAUGGCGAAUGGGACCCA [A45C G53A],0.564
13,GGCCGGCAUGGUCCCAGCCUCCUCGCUGGCGCCGGCUGGGCAACCUUCCGAGUGGACCGUCCCCUCGGUAAUGGCGAAUGGGACCCA [A45C G53U],0.712
14,GGCCGGCAUGGUCCCAGCCUCCUCGCUGGCGCCGGCUGGGCAACCUUCCGAGGGCACCGUCCCCUCGGUAAUGGCGAAUGGGACCCA [A45C G55C],0.48
15,GGCCGGCAUGGUCCCAGCCUCCUCGCUGGCGCCGGCUGGGCAACCUUCCGAGGGGACCGUCCCCUCGAUAAUGGCGAAUGGGACCCA [A45C G68A],0.686
16,GGCCGGCAUGGUCCCAGCCUCCUCGCUGGCGCCGGCUGGGCAACCUUCCGAGGGGACCGUCCCCUCGCUAAUGGCGAAUGGGACCCA [A45C G68C],0.404
17,GGCCGGCAUGGUCCCAGCCUCCUCGCUGGCGCCGGCUGGGCAACCUUCCGAGGGGACCGUCCCCUCGGUAAUGGCGAAUGGGACUCA [A45C C85U],0.437
18,GGCCGGCAUGGUCCCAGCCUCCUCGCUGGCGCCGGCUGGGCAACCUUCCGAGGGGACCGUCCCCUCGGUAAUGGCGAAUGGGACACA [A45C C85A],0.437
19,GGCCGGCAUGGUCCCAGCCUCCUCGCUGGCGCCGGCUGGGCAACGUUCCGCGGGGACCGUCCCCUCGGUAAUGGCGAAUGGGACCCA [A45G A51C],0.987
20,GGCCGGCAUGGUCCCAGCCUCCUCGCUGGCGCCGGCUGGGCAACCUACCGAGGGGACCGUCCCCUCGGUAAUGGCGAAUGGGACCCA [A45C U47A],0.911
21,GGCCGGCAUGGUCCCAGCCUCCUCGCUGGCGCCGGCUGGGCAACGUUCCGAGGGGACCGUCCCCUCGGUUAUGGCGAAUGGGACCCA [A45G A70U],1.09
22,GGCCGGCAUGGUCCCAGCCUCCUCGCUGGCGCCGGCUGGGCAACGUUCCGAGGGGACCGUCCCCUCGGUCAUGGCGAAUGGGACCCA [A45G A70C],0.88

row,Variant,self-cleavage
1,GGCCGGCAUGGUCCCAGCCUCCUCGCUGGCGCCGGCUGGGCAACGUUCCGAGGGGACCGUCCCCUCGGUGAUGGCGAAUGGGACCCA [A45G A70G],0.997
2,GGCCGGCAUGGUCCCAGCCUCCUCGCUGGCGCCGGCUGGGCAACGUUCCGAGGGGAUCGUCCCCUCGGUAAUGGCGAAUGGGACCCA [A45G C57U],1.11
3,GGCCGGCAUGGUCCCAGCCUCCUCGCUGGCGCCGGCUGGGCAACGUUCCGAGGGGACCGUCCCCUCGGUAAUGGCGGAUGGGACCCA [A45G A77G],0.867
4,GGCCGGCAUGGUCCCAGCCUCCUCGCUGGCGCCGGCUGGGCAACGUUCCGAGGGGACCGUCCCCUCGGUAAUGGCGCAUGGGACCCA [A45G A77C],0.18
5,GGCCGGCAUGGUCCCAGCCUCCUCGCUGGCGCCGGCUGGGCAACGUUCCGAGGGGACCGUCCCCUCGGUAAUGGCGACUGGGACCCA [A45G A78C],0.237
6,GGCCGGCAUGGUCCCAGCCUCCUCGCUGGCGCCGGCUGGGCAACGUUCCGAGGGGACCGUCCCCUCGGUAAUGGCGAGUGGGACCCA [A45G A78G],0.617
7,GGCCGGCAUGGUCCCAGCCUCCUCGCUGGCGCCGGCUGGGCAACCUUCCGAGGGGACCGUCCCCUCGGCAAUGGCGAAUGGGACCCA [A45C U69C],0.623
8,GGCCGGCAUGGUCCCAGCCUCCUCGCUGGCGCCGGCUGGGCAACCUUCCGAGGGGACCGUCCCCUCGGGAAUGGCGAAUGGGACCCA [A45C U69G],0.974
9,GGCCGGCAUGGUCCCAGCCUCCUCGCUGGCGCCGGCUGGGCAACCUUCCGAGGGGACCGUCCCCUCGGUAAUGGCGAAUGGGACCGA [A45C C86G],0.465
10,GGCCGGCAUGGUCCCAGCCUCCUCGCUGGCGCCGGCUGGGCAACCUUCCGAGGGGACCGUCCCCUCGGUAAUGGCGAAUGGGACCAA [A45C C86A],0.95
11,GGCCGGCAUGGUCCCAGCCUCCUCGCUGGCGCCGGCUGGGCAACGUUCGGAGGGGACCGUCCCCUCGGUAAUGGCGAAUGGGACCCA [A45G C49G],0.831
12,GGCCGGCAUGGUCCCAGCCUCCUCGCUGGCGCCGGCUGGGCAACGUUCAGAGGGGACCGUCCCCUCGGUAAUGGCGAAUGGGACCCA [A45G C49A],0.872
13,GGCCGGCAUGGUCCCAGCCUCCUCGCUGGCGCCGGCUGGGCAACGUUCUGAGGGGACCGUCCCCUCGGUAAUGGCGAAUGGGACCCA [A45G C49U],1.24
14,GGCCGGCAUGGUCCCAGCCUCCUCGCUGGCGCCGGCUGGGCAACCUUCCGAGGGGACCGUCCCCUCGGUAAUGGCCAAUGGGACCCA [A45C G76C],0.68
15,GGCCGGCAUGGUCCCAGCCUCCUCGCUGGCGCCGGCUGGGCAACCUUCCGAGGGGACCGUCCCCUCGGUAAUGGCAAAUGGGACCCA [A45C G76A],0.869
16,GGCCGGCAUGGUCCCAGCCUCCUCGCUGGCGCCGGCUGGGCAACCUUCCGAGGGGACCAUCCCCUCGGUAAUGGCGAAUGGGACCCA [A45C G59A],0.704
17,GGCCGGCAUGGUCCCAGCCUCCUCGCUGGCGCCGGCUGGGCAACCUUCCGAGGGGACCCUCCCCUCGGUAAUGGCGAAUGGGACCCA [A45C G59C],0.696
18,GGCCGGCAUGGUCCCAGCCUCCUCGCUGGCGCCGGCUGGGCAACGUUCCGAGGGGACGGUCCCCUCGGUAAUGGCGAAUGGGACCCA [A45G C58G],1.14
19,GGCCGGCAUGGUCCCAGCCUCCUCGCUGGCGCCGGCUGGGCAACGUUCCGAGGGGACUGUCCCCUCGGUAAUGGCGAAUGGGACCCA [A45G C58U],0.906
20,GGCCGGCAUGGUCCCAGCCUCCUCGCUGGCGCCGGCUGGGCAACGUUCCGAGGGGUCCGUCCCCUCGGUAAUGGCGAAUGGGACCCA [A45G A56U],1.12
